Laboratory results published in patent publication US20060134709A1.

Experiments:
[1] = molecular target: soluble FcγRIIB (human) (UniProt P31994); assay: ELISA
[2] = molecular target: soluble monomeric FcγRIIIA-linker-AVITAG (human) (UniProt P08637); assay: ELISA

| Substance | fold increase vs wt [1] | fold increase vs wt [2] | other results |
| --- | --- | --- | --- |
| ch4-4-20 "term is M, P396L" (antibody) | 7.2 x | 1.9 x | – |
| ch4-4-20 A231V, Q386H, V412M (antibody) | 6 x | 1.5 x | – |
| ch4-4-20 A378V, N390I, V422I (antibody) | – | 0.5 x | – |
| ch4-4-20 D221Y, M252I, A330G, A339T, T359N, V422I, H433L (antibody) | 6 x | 2.5 x | – |
| ch4-4-20 D280E, S354F, A431D, L441I (antibody) | – | 3 x | – |
| ch4-4-20 D312E, K327N, I378S (antibody) | – | 0.5 x | – |
| ch4-4-20 D399E, M428L (antibody) | – | – | fold decrease vs wt [1]: 0.5 x; fold decrease vs wt [2]: 0.5 x |
| ch4-4-20 D399E, R292L, V185M (antibody) | 0.5 x | – | – |
| ch4-4-20 D401V (antibody) | – | 0.5 x | – |
| ch4-4-20 E216D, E345K, S375I (antibody) | 4 x | 0.5 x | – |
| ch4-4-20 E233D, K334E (antibody) | – | 1.5 x | – |
| ch4-4-20 E258D, N384K (antibody) | 4 x | 1.25 x | – |
| ch4-4-20 E258D, P396L (antibody) | 4.9 x | 1.9 x | – |
| ch4-4-20 F241L, E258G (antibody) | 2.5 x | 2 x | – |
| ch4-4-20 F243L, R255L, E318K (antibody) | – | 1 x | – |
| ch4-4-20 F243L, V305I, A378D, F404S, P396L (antibody) | 5.4 x | 1.6 x | – |
| ch4-4-20 F275I, K334N, V348M (antibody) | – | 0.5 x | – |
| ch4-4-20 F275L, Q362H, N384K, P396L (antibody) | 3.7 x | 2.2 x | – |
| ch4-4-20 F275Y (antibody) | – | 3 x | – |
| ch4-4-20 G385E, P247H (antibody) | 0.75 x | 1 x | – |
| ch4-4-20 H224L (antibody) | – | 0.5 x | – |
| ch4-4-20 H268D, E318D (antibody) | – | 1.5 x | – |
| ch4-4-20 H268D, P396L (antibody) | 13.7 x | 3.8 x | – |
| ch4-4-20 H310Y, T289A, G337E (antibody) | – | 0.5 x | – |
| ch4-4-20 I377F (antibody) | 0.5 x | 1.5 x | – |
| ch4-4-20 I377N (antibody) | – | – | fold decrease vs wt [2]: 0.5 x |

| Substance | fold increase vs wt [1] | fold increase vs wt [2] | other results |
| --- | --- | --- | --- |
| ch4-4-20 K210M, P396L (antibody) | 4.6 x | 1.9 x | – |
| ch4-4-20 K210N, K222I, K320M, P396L (antibody) | 8.7 x | 2.7 x | – |
| ch4-4-20 K218R, G281D, G385R (antibody) | – | 3.5 x | – |
| ch4-4-20 K222N (antibody) | – | 1 x | – |
| ch4-4-20 K222N, T335N, K370E, A378V, T394M (antibody) | 7 x | 1 x | – |
| ch4-4-20 K246I, Q362H, K370E (antibody) | – | – | fold decrease vs wt [1]: 0.5 x |
| ch4-4-20 K246N, Q419R, P396L (antibody) | 4.8 x | 1.1 x | – |
| ch4-4-20 K246R, S298N, I377F (antibody) | – | 1 x | – |
| ch4-4-20 K246T, P396H (antibody) | 2.5 x | 1 x | – |
| ch4-4-20 K246T, Y319F (antibody) | – | 1 x | – |
| ch4-4-20 K288N, K326N (antibody) | – | 1 x | – |
| ch4-4-20 K290E, V369A, T393A, P396L (antibody) | 6.7 x | 1.3 x | – |
| ch4-4-20 K290T, G371D (antibody) | 6 x | 0.25 x | – |
| ch4-4-20 K290T, N390I, P396L (antibody) | 6.1 x | 2.8 x | – |
| ch4-4-20 K317N, F423-deleted (antibody) | 7 x | 2.5 x | – |
| ch4-4-20 K320E, K326E (antibody) | – | 1 x | – |
| ch4-4-20 K326E, G385E (antibody) | – | 0.5 x | – |
| ch4-4-20 K326I, P396L (antibody) | 5.9 x | 2.9 x | – |
| ch4-4-20 K326I, S408N, P396L (antibody) | 9.3 x | 4 x | – |
| ch4-4-20 K326Q, K334E, T359N, T366S (antibody) | – | 1.5 x | – |
| ch4-4-20 K334E (antibody) | – | 2.5 x | – |
| ch4-4-20 K334E, E380D (antibody) | 4.5 x | 1.5 x | – |
| ch4-4-20 K334E, T359N, T366S, Q386R (antibody) | – | 1 x | – |
| ch4-4-20 K334I (antibody) | – | 1 x | – |
| ch4-4-20 K334N (antibody) | – | 0.5 x | – |
| ch4-4-20 K334N, P396L (antibody) | – | 3.1 x | – |

| Substance | fold increase vs wt [1] | fold increase vs wt [2] | other results |
| --- | --- | --- | --- |
| ch4-4-20 K370E, P396L (antibody) | 6.6 x | 2 x | – |
| ch4-4-20 K370N, S440N (antibody) | 3.5 x | 1 x | – |
| ch4-4-20 K414N (antibody) | – | – | fold decrease vs wt [2]: 0.25 x |
| ch4-4-20 L235P, V382M, S304G, V305I, V323I (antibody) | – | 2 x | – |
| ch4-4-20 L242F, P396L (antibody) | 4.1 x | 2.5 x | – |
| ch4-4-20 L358P, P396L (antibody) | 4.2 x | 1.9 x | – |
| ch4-4-20 L398V (antibody) | – | 1.5 x | – |
| ch4-4-20 L410H, P396L (antibody) | 4.5 x | 1.7 x | – |
| ch4-4-20 N315I (antibody) | 0.75 x | – | – |
| ch4-4-20 N315I, V379M, T394M (antibody) | 9 x | 1 x | fold vs wt [1]: 9 X; fold vs wt [2]: 1 X |
| ch4-4-20 N384K, P396L (antibody) | 5.2 x | 2.2 x | – |
| ch4-4-20 P217A, T359A, P396L (antibody) | 4.8 x | 1.5 x | – |
| ch4-4-20 P217S, A378V, S408R (antibody) | 4.5 x | 2 x | – |
| ch4-4-20 P217S, V305I, I309L, N390H, P396L (antibody) | 7 x | 2 x | – |
| ch4-4-20 P227S, K290E (antibody) | 0.5 x | 1 x | – |
| ch4-4-20 P227S, P396L (antibody) | 4 x | 1.5 x | – |
| ch4-4-20 P244H, L358M, V379M, N384K, V397M (antibody) | 1.5 x | 1.75 x | – |
| ch4-4-20 P244H, P396L (antibody) | 4 x | 2.5 x | – |
| ch4-4-20 P247L (antibody) | 4 x | 0.5 x | – |
| ch4-4-20 P247L, A330T, S440G (antibody) | – | 0.75 x | fold decrease vs wt [1]: 0.25 x |
| ch4-4-20 P247L, A431V, S442F (antibody) | – | – | fold vs wt [2]: 1 x |
| ch4-4-20 P247L, E389G (antibody) | 9 x | 1.5 x | – |
| ch4-4-20 P247L, I253N, K334N (antibody) | 2.5 x | 3 x | – |
| ch4-4-20 P247L, I377F (antibody) | – | 1 x | – |
| ch4-4-20 P247L, L398Q (antibody) | – | 1.25 x | – |
| ch4-4-20 P247L, W313R, E388G (antibody) | – | 1.5 x | – |

| Substance | fold increase vs wt [1] | fold increase vs wt [2] | other results |
| --- | --- | --- | --- |
| ch4-4-20 P247S, P396L (antibody) | 4.2 x | 1.2 x | – |
| ch4-4-20 P291S, K288E, H268L, A141V (antibody) | – | – | fold decrease vs wt [2]: 0.5 x |
| ch4-4-20 P291S, P353Q (antibody) | – | – | fold decrease vs wt [1]: 0.25 x; fold decrease vs wt [2]: 0.5 x |
| ch4-4-20 P343S, P353L, S375I, S383N (antibody) | 6 x | 0.5 x | – |
| ch4-4-20 P396H (antibody) | – | 1 x | – |
| ch4-4-20 P396L (antibody) | – | 1 x | – |
| ch4-4-20 Q347H, A339V (antibody) | – | 0.5 x | – |
| ch4-4-20 Q419H, P396L (antibody) | 6.9 x | 2 x | – |
| ch4-4-20 Q419L, P396L (antibody) | 6.1 x | 2.2 x | – |
| ch4-4-20 R255L, P396L (antibody) | 6 x | 1.8 x | – |
| ch4-4-20 R255Q, K326E (antibody) | – | 2 x | – |
| ch4-4-20 R301C, M252L, S192T (antibody) | – | – | fold decrease vs wt [2]: 0.5 x |
| ch4-4-20 R301H, K340E, D399E (antibody) | – | – | fold decrease vs wt [1]: 0.25 x; fold decrease vs wt [2]: 0.5 x |
| ch4-4-20 S219Y (antibody) | – | 1 x | – |
| ch4-4-20 S298N, W381R (antibody) | – | 2 x | – |
| ch4-4-20 S383N, N384K, T256N, V262L, K218E, R214I, K205E, F149Y, K133M (antibody) | – | 0.5 x | – |
| ch4-4-20 T256S, V305I, K334E, N390S (antibody) | – | 1.5 x | – |
| ch4-4-20 T335N, K370E, A378V, T394M, S424L (antibody) | – | 0.5 x | – |
| ch4-4-20 T335N, P387S, H435Q (antibody) | – | – | fold vs wt [2]: 1.25 x |
| ch4-4-20 T394M, V397M (antibody) | – | 0.5 x | – |
| ch4-4-20 V279L, P395S (antibody) | – | 1 x | – |
| ch4-4-20 V282M (antibody) | – | 1 x | – |
| ch4-4-20 V284A, F372L (antibody) | – | – | fold vs wt [2]: 1 x |
| ch4-4-20 V397M, T411A, S415N (antibody) | – | 0.25 x | – |
